# Test results as given in paper PMC11018839, “ANKFY1 bridges ATG2A-mediated lipid transfer from endosomes to phagophores” (Cell Discovery, 2024).
# B1: purified Flag-ANKFY1 full-length protein (natural protein, human, UniProt Q9P2R3 1-1169, looked up)
# chain: MAEEEVAKLEKHLMLLRQEYVKLQKKLAETEKRCALLAAQANKESSSESFISRLLAIVADLYEQEQYSDLKIKVGDRHISAHKFVLAARSDSWSLANLSSTKELDLSDANPEVTMTMLRWIYTDELEFREDDVFLTELMKLANRFQLQLLRERCEKGVMSLVNVRNCIRFYQTAEELNASTLMNYCAEIIASHWDDLRKEDFSSMSAQLLYKMIKSKTEYPLHKAIKVEREDVVFLYLIEMDSQLPGKLNEADHNGDLALDLALSRRLESIATTLVSHKADVDMVDKSGWSLLHKGIQRGDLFAATFLIKNGAFVNAATLGAQETPLHLVALYSSKKHSADVMSEMAQIAEALLQAGANPNMQDSKGRTPLHVSIMAGNEYVFSQLLQCKQLDLELKDHEGSTALWLAVQHITVSSDQSVNPFEDVPVVNGTSFDENSFAARLIQRGSHTDAPDTATGNCLLQRAAGAGNEAAALFLATNGAHVNHRNKWGETPLHTACRHGLANLTAELLQQGANPNLQTEEALPLPKEAASLTSLADSVHLQTPLHMAIAYNHPDVVSVILEQKANALHATNNLQIIPDFSLKDSRDQTVLGLALWTGMHTIAAQLLGSGAAINDTMSDGQTLLHMAIQRQDSKSALFLLEHQADINVRTQDGETALQLAIRNQLPLVVDAICTRGADMSVPDEKGNPPLWLALANNLEDIASTLVRHGCDATCWGPGPGGCLQTLLHRAIDENNEPTACFLIRSGCDVNSPRQPGANGEGEEEARDGQTPLHLAASWGLEETVQCLLEFGANVNAQDAEGRTPIHVAISSQHGVIIQLLVSHPDIHLNVRDRQGLTPFACAMTFKNNKSAEAILKRESGAAEQVDNKGRNFLHVAVQNSDIESVLFLISVHANVNSRVQDASKLTPLHLAVQAGSEIIVRNLLLAGAKVNELTKHRQTALHLAAQQDLPTICSVLLENGVDFAAVDENGNNALHLAVMHGRLNNIRVLLTECTVDAEAFNLRGQSPLHILGQYGKENAAAIFDLFLECMPGYPLDKPDADGSTVLLLAYMKGNANLCRAIVRSGARLGVNNNQGVNIFNYQVATKQLLFRLLDMLSKEPPWCDGSYCYECTARFGVTTRKHHCRHCGRLLCHKCSTKEIPIIKFDLNKPVRVCNICFDVLTLGGVS
# notes: ANKFY1, human, full length (ANKFY1-FL), N-terminal Flag tag, pCDNA4-TO vector; also called ANKFY1-FL; ANKFY1-Flag; source: 293S cells, purified (anti-Flag M2 resin, eluted with 3x Flag peptide); not shown: Flag, N-terminal, kept
# Biological target: T1, purified Flag-ATG2A-His protein (human, UniProt Q2TAZ0 1-1938)
# T1 construct: ATG2A, human; Flag-ATG2A-His with a C-terminal His tag; not shown: His tag, C-terminal, kept
# T1 sequence (Q2TAZ0 whole entry): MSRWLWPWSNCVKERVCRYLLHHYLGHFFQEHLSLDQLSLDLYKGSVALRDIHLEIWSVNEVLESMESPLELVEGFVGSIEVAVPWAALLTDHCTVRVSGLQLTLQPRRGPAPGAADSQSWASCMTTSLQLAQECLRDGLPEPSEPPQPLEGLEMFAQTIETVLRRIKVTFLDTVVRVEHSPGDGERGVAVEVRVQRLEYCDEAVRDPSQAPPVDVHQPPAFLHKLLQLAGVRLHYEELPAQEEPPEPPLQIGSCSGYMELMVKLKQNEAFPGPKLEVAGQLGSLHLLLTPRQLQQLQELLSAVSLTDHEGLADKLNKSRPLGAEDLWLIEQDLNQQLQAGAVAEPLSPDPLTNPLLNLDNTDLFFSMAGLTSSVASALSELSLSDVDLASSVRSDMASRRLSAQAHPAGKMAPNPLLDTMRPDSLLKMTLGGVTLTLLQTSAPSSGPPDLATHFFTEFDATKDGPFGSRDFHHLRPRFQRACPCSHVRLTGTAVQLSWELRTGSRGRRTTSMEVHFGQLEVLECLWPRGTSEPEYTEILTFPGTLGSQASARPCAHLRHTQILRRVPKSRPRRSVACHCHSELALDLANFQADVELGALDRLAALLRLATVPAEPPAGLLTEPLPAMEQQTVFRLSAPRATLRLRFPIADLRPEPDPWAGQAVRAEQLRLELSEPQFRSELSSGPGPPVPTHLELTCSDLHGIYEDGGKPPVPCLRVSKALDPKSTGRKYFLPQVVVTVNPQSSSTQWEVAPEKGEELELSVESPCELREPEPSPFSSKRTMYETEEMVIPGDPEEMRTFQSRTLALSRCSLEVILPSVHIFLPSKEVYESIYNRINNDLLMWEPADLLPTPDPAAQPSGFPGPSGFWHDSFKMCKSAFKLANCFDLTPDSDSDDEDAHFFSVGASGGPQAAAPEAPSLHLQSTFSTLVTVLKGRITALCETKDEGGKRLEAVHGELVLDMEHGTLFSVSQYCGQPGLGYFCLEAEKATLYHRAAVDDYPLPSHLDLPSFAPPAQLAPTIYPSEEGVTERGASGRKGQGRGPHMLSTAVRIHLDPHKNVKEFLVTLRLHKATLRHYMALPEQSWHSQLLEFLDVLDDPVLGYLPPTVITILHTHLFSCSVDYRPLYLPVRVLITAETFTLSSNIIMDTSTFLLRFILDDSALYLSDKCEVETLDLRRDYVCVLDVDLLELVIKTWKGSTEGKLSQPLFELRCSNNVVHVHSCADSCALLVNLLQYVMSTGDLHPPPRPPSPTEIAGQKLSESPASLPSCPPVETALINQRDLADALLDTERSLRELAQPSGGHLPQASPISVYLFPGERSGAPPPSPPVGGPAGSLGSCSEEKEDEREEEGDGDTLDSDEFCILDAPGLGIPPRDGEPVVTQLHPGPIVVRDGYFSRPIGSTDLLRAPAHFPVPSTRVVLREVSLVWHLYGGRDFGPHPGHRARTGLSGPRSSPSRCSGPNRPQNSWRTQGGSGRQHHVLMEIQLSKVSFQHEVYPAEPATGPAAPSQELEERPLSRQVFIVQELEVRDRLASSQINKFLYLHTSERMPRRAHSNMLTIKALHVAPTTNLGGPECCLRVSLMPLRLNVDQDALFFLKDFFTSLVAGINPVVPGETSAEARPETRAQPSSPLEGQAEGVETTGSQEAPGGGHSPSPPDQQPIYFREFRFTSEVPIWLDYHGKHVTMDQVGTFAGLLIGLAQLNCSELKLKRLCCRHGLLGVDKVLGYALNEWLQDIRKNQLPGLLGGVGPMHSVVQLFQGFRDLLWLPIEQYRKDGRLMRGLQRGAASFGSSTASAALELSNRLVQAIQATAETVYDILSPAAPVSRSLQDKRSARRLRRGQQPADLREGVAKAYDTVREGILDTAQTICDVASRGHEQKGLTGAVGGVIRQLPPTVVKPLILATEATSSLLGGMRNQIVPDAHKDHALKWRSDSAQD
# Experiment: liposome co-flotation; 100 nm liposomes with 5% PI3P (2% Rhod-PE, 30% POPE, 63% DOPC), 1 mM lipids, incubated with 4.28 uM ANKFY1, 0.5 uM ATG2A or both at 37 °C for 1 h; 50 mM HEPES pH 8.0, 300 mM NaCl, 1 mM TCEP; floated on a histodenz gradient; topmost fraction analysed by SDS-PAGE and western blot
# Conditions: both partners purified
binder,measurement,value
B1,binding result,binds
